Experimental data taken from US20220220224A1 (Hoffmann-La Roche, published 2022).

Legend:
[1] = molecular target: T1, recombinant biotinylated monomeric Fc fusion of human Folate Receptor 2 (hu FolR2 ECD-AcTev-Fcknob-Avi tag … (human, UniProt P0DOX5 223-449 = IgG part, biotin on the C-terminal Avi tag)); assay: SPR Biacore, single injection on immobilized antigen-Fc
T1 construct: also called FolR2-Fc
Outline: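 Biacore T200 at 25 °C in HBS-EP (HEPES pH 7.4). Biotinylated FolR-Fc fusions captured on SA chip at about 300-400 RU. IgGs injected once at 500 nM for 60 s to assess cross-reactivity and specificity.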

[2] = molecular target: T2, recombinant biotinylated monomeric Fc fusion of human Folate Receptor 1 (huFolR1 ECD-AcTev-Fcknob-Avi tag … (human, UniProt P0DOX5 223-449 = IgG part, biotin on the C-terminal Avi tag)); assay: SPR Biacore, affinity (monovalent), antibody captured via anti-Fab
T2 construct: also called huFolR1-Fc; human FolR1-Fc
Method: (§1) The affinity of the interaction between the anti-FolR1 IgG or T cell bispecifics and the recombinant folate receptors was determined as described below (Table 26).
(§2) For affinity measurement, direct coupling of around 12000 resonance units (RU) of the anti-human Fab specific antibody (Fab capture kit, GE Healthcare) was performed on a CM5 chip at pH 5.0 using the standard amine coupling kit (GE Healthcare). Anti-FolR1 IgG or T cell bispecifics were captured at 20 nM with a flow rate of 10 μl/min for 40 sec, the reference flow cell was left without capture. […] The dissociation phase was monitored for 300 s and triggered by switching from the sample solution to HBS-EP. The chip surface was regenerated after every cycle using a double injection of 60 sec 10 mM Glycine-HCl pH 1.5. Bulk refractive index differences were corrected for by subtracting the response obtained on the reference flow cell 1. The affinity constants for the interactions were derived from the rate constants by fitting to a 1:1 Langmuir binding using the Bia Evaluation software (GE Healthcare).

[3] = molecular target: T3, recombinant biotinylated monomeric Fc fusion of murine Folate Receptor 1 (mu FolR1 ECD-AcTev-Fcknob-Avitag … (murine, UniProt P0DOX5 223-449 = IgG part, biotin on the C-terminal Avi tag)); assay: as above
T3 construct: also called muFolR1-Fc; murine FolR1
Method: as §1, §2

[4] = molecular target: T4, recombinant biotinylated monomeric Fc fusion of cynomolgus Folate Receptor 1 (cy FolR1 ECD-AcTev-Fcknob-Avi … (cynomolgus, UniProt P0DOX5 223-449 = IgG part, biotin on the C-terminal Avi tag)); assay: as above
T4 construct: also called cyFolR1-Fc; cyno FolR1
Method: as §1, §2

B1: 36F2 IgG (antibody, V domains shown)
VH: QVQLVQSGAEVKKPGASVKVSCKASGYTFTSYYMHWVRQAPGQGLEWMGIINPSGGSTSYAQKFQGRVTMTHDTSTSTVYMELSSLRSEDTAVYYCARSFFTGFHLDYWGQGTLVTVSS
VL: EIVLTQSPGTLSLSPGERATLSCRASQSVSSSYLAWYQQKPGQAPRLLIYGASSRATGIPDRFSGSGSGTDFTLTISRLEPEDFAVYYCQQYTNEHYYTFGQGTKVEIK
binding result [1]: no binding (tested: 500 nM) | Kd [2]: 0.73 µM | koff [2]: 0.0665 s⁻¹ | kon [2]: 91000 M⁻¹ s⁻¹ | Kd [3]: 0.21 µM | koff [3]: 0.0178 s⁻¹ | kon [3]: 83200 M⁻¹ s⁻¹ | Kd [4]: 0.57 µM | koff [4]: 0.0578 s⁻¹ | kon [4]: 102000 M⁻¹ s⁻¹
